Reference: patent US20220204610A1, “PROTEIN BINDERS FOR IRHOM2” (NEW YORK SOCIETY FOR THE RELIEF OF THE RUPTURED AND …, priority 2019, published 2022)

Key:
human iRhom2 = experiment: Peptide binding ELISA, binding specificity (Example 10), iRhom2 peptides; settings: antibody 3 μg/ml PBS; peptides coated at 10 μg/ml; normalized to IgM isotype control
Protocol: Another series of peptide binding ELISA experiments was conducted to address the specificity of the purified antibody 4H8-E3 of the invention, i.e. to question whether this antibody specifically recognizes peptides, in particular peptide 3, resembling the extracellular juxtamembrane region adjacent to the TMD1 of human iRhom2, or whether the antibody 4H8-E3 of the invention also binds to peptides reflecting the homologous region of the closely related family member human iRhom1.
In brief, on day 1, Nunc black MaxiSorp® 96-well plates (Thermo Fisher Scientific, USA) were coated overnight with 100 μl per well of single biotinylated peptides 1 to 4, Mix A consisting of peptides 1 to 4, single biotinylated peptides 1b to 4b, and Mix D consisting of peptides 1b to 4b at 10 μg/m1 PBS each (thus, the final concentration of each peptide in both mixes was 2.5 μg/m1) at 4° C. On day 2, peptide solutions were removed and MaxiSorp® plates were blocked with 300 μl per well of Pierce protein-free (TBS) blocking buffer (Thermo Fisher Scientific, USA) at room temperature for 1.5 hours. […] Using an infinite M1000 PRO (Tecan Group, Switzerland) microplate reader, the fluorescence of each well was collected at an excitation wavelength of 435 nm and an emission wavelength of 555 nm.

[1] = tested on: LPS-induced release of endogenous TNFα from human THP-1 macrophage cells; experiment: TNFα release (shedding) assay, functional screen of hybridoma supernatants; assay type: cell-based; settings: supernatants of monoclonal 4H8 sub-clones; assay as in Example 5
Excerpt: After 14 days of culture, supernatants of hybridoma cells were collected and—instead of being selected for iRhom2 binding antibodies—were subjected to an ELISA-based functional screen for iRhom2 activity-neutralizing antibodies. Since the crucial role of iRhom2 in TACE-mediated release of tumor necrosis factor alpha (TNFα) from macrophages is very well established (McIlwein et al., 2012, Adrain et al., 2012, Siggs et al., 2012), the human TNF-alpha DuoSet ELISA (R&D Systems, USA) was employed to compare the lipopolysaccharide (LPS)-induced release of endogenous TNFα from human THP-1 macrophage cells in the presence and absence of all 5280 peptide immunization-derived hybridoma supernatants.
In brief, on day 1, Nunc black MaxiSorp® 96-well plates (Thermo Fisher Scientific, USA) were coated overnight with 100 μl per well of mouse anti-human TNFα capture antibody (provided as part of the DuoSet ELISA kit) at 4 μg/m1 TBS at 4° C. […] Using an infinite M1000 PRO (Tecan Group, Switzerland) microplate reader, the fluorescence of each well was collected at an excitation wavelength of 435 nm and an emission wavelength of 555 nm.
In brief, cells of the hybridoma population 4H8 were counted and the dilution factor to end up with an average of two cells per well of 96-well plates was calculated. […]

B1: 4H8-E3: Mouse IgM monoclonal antibody against the human iRhom2 juxtamembrane domain adjacent to TMD1; HC VD SEQ ID NO 33, LC VD SEQ ID NO 40 (antibody, V domains shown)
VH: EVQLQQSGPELVKPGASVKISCKASGYTFTDYYMNWVKQSHGKSLEWIGDINPNNGGTSYNQKFKGKATLTVDKSSNTAYMEFRSLTSEDSAVYYCARRGYYGVDYWGQGTTLTVSS
VL: NIVMTQSPKSMSMSVGERVTLNCKASENVGTYVSWYQQKPEQSPKLLIFGASNRYTGVPDRFIGSGFATDFTLTISSVQAEDLADYHCGQSYSYPYTFGGGTKLEIK
modifications: IgM constant regions; antibody sequence
binding to Mix A consisting of peptides 1, 2, 3 and 4 (human iRhom2): Binding | inhibitory effect of sub-clone supernatants on LPS-induced release of TNFα from THP-1 cells [1]: significantly interfere
